The experiment concerns the target T1, Full-length cysteine string protein CSP(1-198), Q9H3Z4.
T1 chain: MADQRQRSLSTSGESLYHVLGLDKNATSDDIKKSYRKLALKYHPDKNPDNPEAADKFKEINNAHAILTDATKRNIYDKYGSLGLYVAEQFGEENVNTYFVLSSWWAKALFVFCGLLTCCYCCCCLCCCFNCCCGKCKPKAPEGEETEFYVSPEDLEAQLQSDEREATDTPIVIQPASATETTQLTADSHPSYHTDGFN
Description: AUC; sedimentation velocity, 50,000 rpm, 20.1°C, 9 hr, absorbance at 279 nm; self-association of purified recombinant protein. Particulars: remark: other sources report otherwise.

B1: Full-length cysteine string protein CSP(1-198), Q9H3Z4 1-198 (natural protein)
chain: T1 chain
B1: the stoichiometry N (as a rule, a count of units in the complex or per binding partner) is above 10 subunits.
